Assay results: PMC9352680, “A comprehensive thermodynamic model for RNA binding by the Saccharomyces cerevisiae Pumilio protein PUF4”

T1: PUF4 RNA-binding domain (Saccharomyces cerevisiae, UniProt P25339 537-888)
T1 sequence: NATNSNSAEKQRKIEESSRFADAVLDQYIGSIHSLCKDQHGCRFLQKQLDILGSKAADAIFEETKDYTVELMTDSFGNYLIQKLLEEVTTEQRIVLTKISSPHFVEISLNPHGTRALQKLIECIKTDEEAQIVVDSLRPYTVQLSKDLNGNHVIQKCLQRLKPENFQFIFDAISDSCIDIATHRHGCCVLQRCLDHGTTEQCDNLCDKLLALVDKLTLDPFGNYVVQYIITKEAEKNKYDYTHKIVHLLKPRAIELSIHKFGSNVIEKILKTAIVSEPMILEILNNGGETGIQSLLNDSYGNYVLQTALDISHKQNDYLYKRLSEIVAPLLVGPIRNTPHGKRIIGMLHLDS


Biological target: T1, PUF4 RNA-binding domain
Assay: Mg; RNA-MaP; 20 mM Na-HEPES pH 7.4, 30 mM KOAc, 0.75 mM MgCl2, 0.1% Tween-20, 5% glycerol, 0.1 mg/mL BSA, 2 mM DTT; 25 C; 0.0125-409.6 nM protein
Conditions: tags: N-His6-TEV cleaved; C-SNAP kept, Cy3B-labelled; label: tethered on chip by stalled RNA polymerase

Binder	Kd [nM]
ACAAACACACACUAUUAACACAAAC (ssRNA) [Id_ii_S3_P4E.4_K4.3_C4.2_[C-2A]_[T-1C]_H4.3_A4.1_F4.1_T4.2_[G10A]_[T11C]]	> 2300
ACAAACACACACUAUUAGCACAAAC (ssRNA) [Id_ii_S3_P4E.4_K4.3_C4.2_[C-2A]_[T-1C]_H4.3_A4.1_F4.1_T4.2_[T11C]]	> 2300
ACAAACCCUAUAUAUUACUACAAAC (ssRNA) [Id_ii_S3_P4E.3_K4.2_C4.2_[T-1C]_H4.2_A4.1_F4.1_T4.2_[G10C]]	18.4
ACAAACAAACACUAUUACCACAAAC (ssRNA) [Id_ii_S3_P4E.4_K4.3_C4.2_[C-2A]_[T-1A]_H4.3_A4.1_F4.1_T4.2_[G10C]_[T11C]]	> 2300
ACAAACUGACACUAUUAUGACAAAC (ssRNA) [Id_ii_S3_P4E.4_K4.3_C4.2_[C-2T]_[T-1G]_H4.3_A4.1_F4.1_T4.2_[G10T]_[T11G]]	> 2300
UCUCUUUGUAUUUUUGUCUCUU (ssRNA) [Ib_S1_P5E.1_K5.1_C5.1_H5.1_A5.1_[A7T]_F5.1_[A10G]_T5.1]	13.7
ACAAACCCUAUAUAUUAACACAAAC (ssRNA) [Id_ii_S3_P4E.3_K4.2_C4.2_[T-1C]_H4.2_A4.1_F4.1_T4.2_[G10A]_[T11C]]	25.9
ACAAACAUACACUAUUAUUACAAAC (ssRNA) [Id_ii_S3_P4E.4_K4.3_C4.2_[C-2A]_H4.3_A4.1_F4.1_T4.2_[G10T]]	600
UCUCUUUGUAUUUUUCUCUCUU (ssRNA) [Ib_S1_P5E.1_K5.1_C5.1_H5.1_A5.1_[A7T]_F5.1_[A10C]_T5.1]	23.8
ACAAACAUUAUAUAUUACUACAAAC (ssRNA) [Id_ii_S3_P4E.3_K4.2_C4.2_[C-2A]_H4.2_A4.1_F4.1_T4.2_[G10C]]	21.1
ACAAACUGACACUAUUACGACAAAC (ssRNA) [Id_ii_S3_P4E.4_K4.3_C4.2_[C-2T]_[T-1G]_H4.3_A4.1_F4.1_T4.2_[G10C]_[T11G]]	> 2300
ACAAACCUUAUAUAUUAAUACAAAC (ssRNA) [Id_ii_S3_P4E.3_K4.2_C4.2_H4.2_A4.1_F4.1_T4.2_[G10A]]	14
ACAAACCAUAUAUAUUACCACAAAC (ssRNA) [Id_ii_S3_P4E.3_K4.2_C4.2_[T-1A]_H4.2_A4.1_F4.1_T4.2_[G10C]_[T11C]]	32.1
ACAAACUCACACUAUUAGUACAAAC (ssRNA) [Id_ii_S3_P4E.4_K4.3_C4.2_[C-2T]_[T-1C]_H4.3_A4.1_F4.1_T4.2]	> 2300
ACAAACUUACACUAUUAAAACAAAC (ssRNA) [Id_ii_S3_P4E.4_K4.3_C4.2_[C-2T]_H4.3_A4.1_F4.1_T4.2_[G10A]_[T11A]]	> 2300
ACAAACAUACACUAUUAACACAAAC (ssRNA) [Id_ii_S3_P4E.4_K4.3_C4.2_[C-2A]_H4.3_A4.1_F4.1_T4.2_[G10A]_[T11C]]	1470
ACAAACGUACACUAUUAACACAAAC (ssRNA) [Id_ii_S3_P4E.4_K4.3_C4.2_[C-2G]_H4.3_A4.1_F4.1_T4.2_[G10A]_[T11C]]	39.8
UCUCUUUGUAUUCUUCUCUCUU (ssRNA) [Ib_S1_P5E.1_K5.1_C5.1_H5.1_A5.1_[A7C]_F5.1_[A10C]_T5.1]	36.4
ACAAACUCACACUAUUAAGACAAAC (ssRNA) [Id_ii_S3_P4E.4_K4.3_C4.2_[C-2T]_[T-1C]_H4.3_A4.1_F4.1_T4.2_[G10A]_[T11G]]	> 2300
ACAAACCUUAUAUAUUAACACAAAC (ssRNA) [Id_ii_S3_P4E.3_K4.2_C4.2_H4.2_A4.1_F4.1_T4.2_[G10A]_[T11C]]	21.6
ACAAACGUACACUAUUAGCACAAAC (ssRNA) [Id_ii_S3_P4E.4_K4.3_C4.2_[C-2G]_H4.3_A4.1_F4.1_T4.2_[T11C]]	70.4
ACAAACCCUAUAUAUUAUUACAAAC (ssRNA) [Id_ii_S3_P4E.3_K4.2_C4.2_[T-1C]_H4.2_A4.1_F4.1_T4.2_[G10T]]	13.3
ACAAACUCACACUAUUAUUACAAAC (ssRNA) [Id_ii_S3_P4E.4_K4.3_C4.2_[C-2T]_[T-1C]_H4.3_A4.1_F4.1_T4.2_[G10T]]	> 2300
ACAAACAAACACUAUUAUGACAAAC (ssRNA) [Id_ii_S3_P4E.4_K4.3_C4.2_[C-2A]_[T-1A]_H4.3_A4.1_F4.1_T4.2_[G10T]_[T11G]]	> 2300
ACAAACUGACACUAUUAACACAAAC (ssRNA) [Id_ii_S3_P4E.4_K4.3_C4.2_[C-2T]_[T-1G]_H4.3_A4.1_F4.1_T4.2_[G10A]_[T11C]]	> 2300

Binder	Kd [nM]
ACAAACAAACACUAUUAGCACAAAC (ssRNA) [Id_ii_S3_P4E.4_K4.3_C4.2_[C-2A]_[T-1A]_H4.3_A4.1_F4.1_T4.2_[T11C]]	> 2300
ACAAACCUUAUAUAUUAGUACAAAC (ssRNA) [If_S3_P4E.3_K4.2_C4.2_H4.2_A4.1_F4.1_T4.2]	3.71
ACAAACAAACACUAUUAACACAAAC (ssRNA) [Id_ii_S3_P4E.4_K4.3_C4.2_[C-2A]_[T-1A]_H4.3_A4.1_F4.1_T4.2_[G10A]_[T11C]]	> 2300
ACAAACUUACACUAUUAGAACAAAC (ssRNA) [Id_ii_S3_P4E.4_K4.3_C4.2_[C-2T]_H4.3_A4.1_F4.1_T4.2_[T11A]]	> 2300
ACAAACAUUAUAUAUUAUCACAAAC (ssRNA) [Id_ii_S3_P4E.3_K4.2_C4.2_[C-2A]_H4.2_A4.1_F4.1_T4.2_[G10T]_[T11C]]	19.4
ACAAACUGACACUAUUAUCACAAAC (ssRNA) [Id_ii_S3_P4E.4_K4.3_C4.2_[C-2T]_[T-1G]_H4.3_A4.1_F4.1_T4.2_[G10T]_[T11C]]	> 2300
ACAAACUCACACUAUUAACACAAAC (ssRNA) [Id_ii_S3_P4E.4_K4.3_C4.2_[C-2T]_[T-1C]_H4.3_A4.1_F4.1_T4.2_[G10A]_[T11C]]	> 2300
ACAAACUAACACUAUUACGACAAAC (ssRNA) [Id_ii_S3_P4E.4_K4.3_C4.2_[C-2T]_[T-1A]_H4.3_A4.1_F4.1_T4.2_[G10C]_[T11G]]	> 2300
ACAAACUCACACUAUUAAAACAAAC (ssRNA) [Id_ii_S3_P4E.4_K4.3_C4.2_[C-2T]_[T-1C]_H4.3_A4.1_F4.1_T4.2_[G10A]_[T11A]]	> 2300
UCUCUUUGUAUUGUUCUCUCUU (ssRNA) [Ib_S1_P5E.1_K5.1_C5.1_H5.1_A5.1_[A7G]_F5.1_[A10C]_T5.1]	45.8
ACAAACACACACUAUUAUUACAAAC (ssRNA) [Id_ii_S3_P4E.4_K4.3_C4.2_[C-2A]_[T-1C]_H4.3_A4.1_F4.1_T4.2_[G10T]]	> 2300
ACAAACGCACACUAUUACUACAAAC (ssRNA) [Id_ii_S3_P4E.4_K4.3_C4.2_[C-2G]_[T-1C]_H4.3_A4.1_F4.1_T4.2_[G10C]]	> 2300
ACAAACGCACACUAUUAGAACAAAC (ssRNA) [Id_ii_S3_P4E.4_K4.3_C4.2_[C-2G]_[T-1C]_H4.3_A4.1_F4.1_T4.2_[T11A]]	> 2300
ACAAACCCUAUAUAUUACGACAAAC (ssRNA) [Id_ii_S3_P4E.3_K4.2_C4.2_[T-1C]_H4.2_A4.1_F4.1_T4.2_[G10C]_[T11G]]	16.6
ACAAACAGACACUAUUAGAACAAAC (ssRNA) [Id_ii_S3_P4E.4_K4.3_C4.2_[C-2A]_[T-1G]_H4.3_A4.1_F4.1_T4.2_[T11A]]	> 2300
ACAAACCUUAUAUAUUACUACAAAC (ssRNA) [Id_ii_S3_P4E.3_K4.2_C4.2_H4.2_A4.1_F4.1_T4.2_[G10C]]	13.3
ACAAACAAACACUAUUAAGACAAAC (ssRNA) [Id_ii_S3_P4E.4_K4.3_C4.2_[C-2A]_[T-1A]_H4.3_A4.1_F4.1_T4.2_[G10A]_[T11G]]	> 2300
ACAAACAUACACUAUUACCACAAAC (ssRNA) [Id_ii_S3_P4E.4_K4.3_C4.2_[C-2A]_H4.3_A4.1_F4.1_T4.2_[G10C]_[T11C]]	740
ACAAACCCUAUAUAUUAAUACAAAC (ssRNA) [Id_ii_S3_P4E.3_K4.2_C4.2_[T-1C]_H4.2_A4.1_F4.1_T4.2_[G10A]]	14
ACAAACAUACACUAUUAUAACAAAC (ssRNA) [Id_ii_S3_P4E.4_K4.3_C4.2_[C-2A]_H4.3_A4.1_F4.1_T4.2_[G10T]_[T11A]]	902
ACAAACGUACACUAUUAUCACAAAC (ssRNA) [Id_ii_S3_P4E.4_K4.3_C4.2_[C-2G]_H4.3_A4.1_F4.1_T4.2_[G10T]_[T11C]]	39.9
ACAAACAUUAUAUAUUAGAACAAAC (ssRNA) [Id_ii_S3_P4E.3_K4.2_C4.2_[C-2A]_H4.2_A4.1_F4.1_T4.2_[T11A]]	12.8
ACAAACUUACACUAUUAUAACAAAC (ssRNA) [Id_ii_S3_P4E.4_K4.3_C4.2_[C-2T]_H4.3_A4.1_F4.1_T4.2_[G10T]_[T11A]]	1640
ACAAACACACACUAUUACUACAAAC (ssRNA) [Id_ii_S3_P4E.4_K4.3_C4.2_[C-2A]_[T-1C]_H4.3_A4.1_F4.1_T4.2_[G10C]]	> 2300
